Experimental data reported in the RNAGym collection of RNA variant scans (doi:10.1021/acssynbio.7b00057).

B1: Pistol ribozyme (parent)
chain: GGGUCGUUGUUCCAUAAUCGCGUGGAUAUGGCACGCAAGUUUCUACCGGGCACCGUAAAUGUCCGACUGGAGCCGUUCGGGCGGCUAUAAACAGACCUCAGGCCCGAAGCGUGGCGGCACCUGCCGCCGGUGGUAAAAAAGAUCGGAAGAGCACACGUCU

Variants of: B1
Experiment: aptazyme ON/OFF ratio, guanine; higher = stronger switching; co-transcriptional cleavage with and without guanine

Variant	aptazyme ON/OFF ratio
GGGUCGAUUGCUUAUAAUCGCGUGGAUAUGGCACGCAAGUUUCUACCGGGCACCGUAAAUGUCCGACUGGAGCCGUUCGGGCGGCUAUAAACAGACCUCAGGCCCGAAGCGUGGCGGCACCUGCCGCCGGUGGUAAAAAAGAUCGGAAGAGCACACGUCU	1.22
GGGUCGGCCGGCAAUAAUCGCGUGGAUAUGGCACGCAAGUUUCUACCGGGCACCGUAAAUGUCCGACUGGAGCCGUUCGGGCGGCUAUAAACAGACCUCAGGCCCGAAGCGUGGCGGCACCUGCCGCCGGUGGUAAAAAAGAUCGGAAGAGCACACGUCU	1.1
GGGUCGCUGAACGAUAAUCGCGUGGAUAUGGCACGCAAGUUUCUACCGGGCACCGUAAAUGUCCGACUGGAGCCGUUCGGGCGGCUAUAAACAGACCUCAGGCCCGAAGCGUGGCGGCACCUGCCGCCGGUGGUAAAAAAGAUCGGAAGAGCACACGUCU	1.2
GGGUCGAACACCAAUAAUCGCGUGGAUAUGGCACGCAAGUUUCUACCGGGCACCGUAAAUGUCCGACUGGAGCCGUUCGGGCGGCUAUAAACAGACCUCAGGCCCGAAGCGUGGCGGCACCUGCCGCCGGUGGUAAAAAAGAUCGGAAGAGCACACGUCU	1.07
GGGUCGCAAGUAGAUAAUCGCGUGGAUAUGGCACGCAAGUUUCUACCGGGCACCGUAAAUGUCCGACUGGAGCCGUUCGGGCGGCUAUAAACAGACCUCAGGCCCGAAGCGUGGCGGCACCUGCCGCCGGUGGUAAAAAAGAUCGGAAGAGCACACGUCU	1.15
GGGUCGGACUGUAAUAAUCGCGUGGAUAUGGCACGCAAGUUUCUACCGGGCACCGUAAAUGUCCGACUGGAGCCGUUCGGGCGGCUAUAAACAGACCUCAGGCCCGAAGCGUGGCGGCACCUGCCGCCGGUGGUAAAAAAGAUCGGAAGAGCACACGUCU	1.05
GGGUCGAAACCGGAUAAUCGCGUGGAUAUGGCACGCAAGUUUCUACCGGGCACCGUAAAUGUCCGACUGGAGCCGUUCGGGCGGCUAUAAACAGACCUCAGGCCCGAAGCGUGGCGGCACCUGCCGCCGGUGGUAAAAAAGAUCGGAAGAGCACACGUCU	1.07
GGGUCGAGUGGCAAUAAUCGCGUGGAUAUGGCACGCAAGUUUCUACCGGGCACCGUAAAUGUCCGACUGGAGCCGUUCGGGCGGCUAUAAACAGACCUCAGGCCCGAAGCGUGGCGGCACCUGCCGCCGGUGGUAAAAAAGAUCGGAAGAGCACACGUCU	1.16
GGGUCGGUAGCCAAUAAUCGCGUGGAUAUGGCACGCAAGUUUCUACCGGGCACCGUAAAUGUCCGACUGGAGCCGUUCGGGCGGCUAUAAACAGACCUCAGGCCCGAAGCGUGGCGGCACCUGCCGCCGGUGGUAAAAAAGAUCGGAAGAGCACACGUCU	1.08
GGGUCGUCGCACUAUAAUCGCGUGGAUAUGGCACGCAAGUUUCUACCGGGCACCGUAAAUGUCCGACUGGAGCCGUUCGGGCGGCUAUAAACAGACCUCAGGCCCGAAGCGUGGCGGCACCUGCCGCCGGUGGUAAAAAAGAUCGGAAGAGCACACGUCU	1.28
GGGUCGAGGGAACAUAAUCGCGUGGAUAUGGCACGCAAGUUUCUACCGGGCACCGUAAAUGUCCGACUGGAGCCGUUCGGGCGGCUAUAAACAGACCUCAGGCCCGAAGCGUGGCGGCACCUGCCGCCGGUGGUAAAAAAGAUCGGAAGAGCACACGUCU	1.09
GGGUCGAUGCCUGAUAAUCGCGUGGAUAUGGCACGCAAGUUUCUACCGGGCACCGUAAAUGUCCGACUGGAGCCGUUCGGGCGGCUAUAAACAGACCUCAGGCCCGAAGCGUGGCGGCACCUGCCGCCGGUGGUAAAAAAGAUCGGAAGAGCACACGUCU	1.08
GGGUCGUCCUUUCAUAAUCGCGUGGAUAUGGCACGCAAGUUUCUACCGGGCACCGUAAAUGUCCGACUGGAGCCGUUCGGGCGGCUAUAAACAGACCUCAGGCCCGAAGCGUGGCGGCACCUGCCGCCGGUGGUAAAAAAGAUCGGAAGAGCACACGUCU	1.08
GGGUCGCUGUUCAAUAAUCGCGUGGAUAUGGCACGCAAGUUUCUACCGGGCACCGUAAAUGUCCGACUGGAGCCGUUCGGGCGGCUAUAAACAGACCUCAGGCCCGAAGCGUGGCGGCACCUGCCGCCGGUGGUAAAAAAGAUCGGAAGAGCACACGUCU	1.14
GGGUCGGUCCGGAAUAAUCGCGUGGAUAUGGCACGCAAGUUUCUACCGGGCACCGUAAAUGUCCGACUGGAGCCGUUCGGGCGGCUAUAAACAGACCUCAGGCCCGAAGCGUGGCGGCACCUGCCGCCGGUGGUAAAAAAGAUCGGAAGAGCACACGUCU	1.09
GGGUCGCACCGCGAUAAUCGCGUGGAUAUGGCACGCAAGUUUCUACCGGGCACCGUAAAUGUCCGACUGGAGCCGUUCGGGCGGCUAUAAACAGACCUCAGGCCCGAAGCGUGGCGGCACCUGCCGCCGGUGGUAAAAAAGAUCGGAAGAGCACACGUCU	1.06
GGGUCGUGCGACCAUAAUCGCGUGGAUAUGGCACGCAAGUUUCUACCGGGCACCGUAAAUGUCCGACUGGAGCCGUUCGGGCGGCUAUAAACAGACCUCAGGCCCGAAGCGUGGCGGCACCUGCCGCCGGUGGUAAAAAAGAUCGGAAGAGCACACGUCU	1.07
GGGUCGGGUCCAGAUAAUCGCGUGGAUAUGGCACGCAAGUUUCUACCGGGCACCGUAAAUGUCCGACUGGAGCCGUUCGGGCGGCUAUAAACAGACCUCAGGCCCGAAGCGUGGCGGCACCUGCCGCCGGUGGUAAAAAAGAUCGGAAGAGCACACGUCU	1.3

Variant	aptazyme ON/OFF ratio
GGGUCGAUAAUGGAUAAUCGCGUGGAUAUGGCACGCAAGUUUCUACCGGGCACCGUAAAUGUCCGACUGGAGCCGUUCGGGCGGCUAUAAACAGACCUCAGGCCCGAAGCGUGGCGGCACCUGCCGCCGGUGGUAAAAAAGAUCGGAAGAGCACACGUCU	1.3
GGGUCGGGCUCGUAUAAUCGCGUGGAUAUGGCACGCAAGUUUCUACCGGGCACCGUAAAUGUCCGACUGGAGCCGUUCGGGCGGCUAUAAACAGACCUCAGGCCCGAAGCGUGGCGGCACCUGCCGCCGGUGGUAAAAAAGAUCGGAAGAGCACACGUCU	1.39
GGGUCGGGAGACCAUAAUCGCGUGGAUAUGGCACGCAAGUUUCUACCGGGCACCGUAAAUGUCCGACUGGAGCCGUUCGGGCGGCUAUAAACAGACCUCAGGCCCGAAGCGUGGCGGCACCUGCCGCCGGUGGUAAAAAAGAUCGGAAGAGCACACGUCU	1.07
GGGUCGCAGCGCAAUAAUCGCGUGGAUAUGGCACGCAAGUUUCUACCGGGCACCGUAAAUGUCCGACUGGAGCCGUUCGGGCGGCUAUAAACAGACCUCAGGCCCGAAGCGUGGCGGCACCUGCCGCCGGUGGUAAAAAAGAUCGGAAGAGCACACGUCU	1.17
GGGUCGUUCAAUCAUAAUCGCGUGGAUAUGGCACGCAAGUUUCUACCGGGCACCGUAAAUGUCCGACUGGAGCCGUUCGGGCGGCUAUAAACAGACCUCAGGCCCGAAGCGUGGCGGCACCUGCCGCCGGUGGUAAAAAAGAUCGGAAGAGCACACGUCU	1.66
GGGUCGUGUAUACAUAAUCGCGUGGAUAUGGCACGCAAGUUUCUACCGGGCACCGUAAAUGUCCGACUGGAGCCGUUCGGGCGGCUAUAAACAGACCUCAGGCCCGAAGCGUGGCGGCACCUGCCGCCGGUGGUAAAAAAGAUCGGAAGAGCACACGUCU	1.43
GGGUCGAUGGUUUAUAAUCGCGUGGAUAUGGCACGCAAGUUUCUACCGGGCACCGUAAAUGUCCGACUGGAGCCGUUCGGGCGGCUAUAAACAGACCUCAGGCCCGAAGCGUGGCGGCACCUGCCGCCGGUGGUAAAAAAGAUCGGAAGAGCACACGUCU	1.36
GGGUCGGGUUCCCAUAAUCGCGUGGAUAUGGCACGCAAGUUUCUACCGGGCACCGUAAAUGUCCGACUGGAGCCGUUCGGGCGGCUAUAAACAGACCUCAGGCCCGAAGCGUGGCGGCACCUGCCGCCGGUGGUAAAAAAGAUCGGAAGAGCACACGUCU	3.17
GGGUCGAAUAAAAAUAAUCGCGUGGAUAUGGCACGCAAGUUUCUACCGGGCACCGUAAAUGUCCGACUGGAGCCGUUCGGGCGGCUAUAAACAGACCUCAGGCCCGAAGCGUGGCGGCACCUGCCGCCGGUGGUAAAAAAGAUCGGAAGAGCACACGUCU	1.35
GGGUCGACUAUGGAUAAUCGCGUGGAUAUGGCACGCAAGUUUCUACCGGGCACCGUAAAUGUCCGACUGGAGCCGUUCGGGCGGCUAUAAACAGACCUCAGGCCCGAAGCGUGGCGGCACCUGCCGCCGGUGGUAAAAAAGAUCGGAAGAGCACACGUCU	1.22
GGGUCGGGAGCUGAUAAUCGCGUGGAUAUGGCACGCAAGUUUCUACCGGGCACCGUAAAUGUCCGACUGGAGCCGUUCGGGCGGCUAUAAACAGACCUCAGGCCCGAAGCGUGGCGGCACCUGCCGCCGGUGGUAAAAAAGAUCGGAAGAGCACACGUCU	1.27
GGGUCGGACUAGUAUAAUCGCGUGGAUAUGGCACGCAAGUUUCUACCGGGCACCGUAAAUGUCCGACUGGAGCCGUUCGGGCGGCUAUAAACAGACCUCAGGCCCGAAGCGUGGCGGCACCUGCCGCCGGUGGUAAAAAAGAUCGGAAGAGCACACGUCU	1.04
GGGUCGUUGCGUGAUAAUCGCGUGGAUAUGGCACGCAAGUUUCUACCGGGCACCGUAAAUGUCCGACUGGAGCCGUUCGGGCGGCUAUAAACAGACCUCAGGCCCGAAGCGUGGCGGCACCUGCCGCCGGUGGUAAAAAAGAUCGGAAGAGCACACGUCU	1.33
GGGUCGGUAAGAUAUAAUCGCGUGGAUAUGGCACGCAAGUUUCUACCGGGCACCGUAAAUGUCCGACUGGAGCCGUUCGGGCGGCUAUAAACAGACCUCAGGCCCGAAGCGUGGCGGCACCUGCCGCCGGUGGUAAAAAAGAUCGGAAGAGCACACGUCU	1.12
GGGUCGCAUGUGCAUAAUCGCGUGGAUAUGGCACGCAAGUUUCUACCGGGCACCGUAAAUGUCCGACUGGAGCCGUUCGGGCGGCUAUAAACAGACCUCAGGCCCGAAGCGUGGCGGCACCUGCCGCCGGUGGUAAAAAAGAUCGGAAGAGCACACGUCU	1.08
GGGUCGUUAUCAGAUAAUCGCGUGGAUAUGGCACGCAAGUUUCUACCGGGCACCGUAAAUGUCCGACUGGAGCCGUUCGGGCGGCUAUAAACAGACCUCAGGCCCGAAGCGUGGCGGCACCUGCCGCCGGUGGUAAAAAAGAUCGGAAGAGCACACGUCU	1.35
GGGUCGUCUAUGGAUAAUCGCGUGGAUAUGGCACGCAAGUUUCUACCGGGCACCGUAAAUGUCCGACUGGAGCCGUUCGGGCGGCUAUAAACAGACCUCAGGCCCGAAGCGUGGCGGCACCUGCCGCCGGUGGUAAAAAAGAUCGGAAGAGCACACGUCU	1.13
GGGUCGAUUACGCAUAAUCGCGUGGAUAUGGCACGCAAGUUUCUACCGGGCACCGUAAAUGUCCGACUGGAGCCGUUCGGGCGGCUAUAAACAGACCUCAGGCCCGAAGCGUGGCGGCACCUGCCGCCGGUGGUAAAAAAGAUCGGAAGAGCACACGUCU	1.25
